Data reported in paper doi:10.1101/2025.09.26.678488, “Dishevelled drives Wnt-stimulated disassembly of primary cilia through a unique PDZ-mediated binding mode with Daple and Girdin” (bioRxiv, 2025).
Residue numbers refer to the chain shown, from its start. No end group written: not given here. *: point of attachment. Lip = lipoyl, O=C(CCCC[C@@H]1CCSS1)*

Tests used:
[1] = molecular target: T1, PDZ_(DVL2) V334E cleft mutant (NMR sample) (human, UniProt O14641 265-361, V334E); test: NMR titration; 1H-15N fHSQC of 100 μM 15N-labelled PDZ_(DVL2) alone or with 150 μM (Daple, Girdin) or 300 μM (FZD4) Lip-tagged PBM peptide; 298 K; chemical shift perturbations and line broadening; conditions: both partners purified
T1 construct: DVL2 (Dishevelled-2), human, PDZ domain, amino acids 265-361, V334E; source: E. coli BL21-CodonPlus(DE3)-RIL, purified (Ni-NTA, SEC)
T1 sequence (looked up): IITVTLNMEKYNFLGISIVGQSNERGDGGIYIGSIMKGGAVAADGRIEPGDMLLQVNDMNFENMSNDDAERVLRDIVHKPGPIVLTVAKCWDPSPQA

[2] = molecular target: T2, Lip-PDZ_(DVL2) (human, UniProt O14641 265-361); test: ITC; 40 μM Lip-PDZ_(DVL2) in the cell, 1.00 mM Lip-PBM_(Daple) or 1.33 mM Lip-PBM_(FZD4) in the syringe; 25°C; 25 mM sodium phosphate pH 6.7, 150 mM NaCl; one set of binding sites; apparent KD; conditions: both partners purified
T2 construct: DVL2 (Dishevelled-2), human, PDZ domain, amino acids 265-361; also called His6x-Lip-PDZ; source: E. coli BL21-CodonPlus(DE3)-RIL, purified (Ni-NTA, SEC); not shown: Lipoyl (Lip), N-terminal, kept
T2 sequence (looked up): T1 sequence (looked up) with E70V

B1: Lip-PBM_(Daple) (C-terminal eight residues of Daple tagged with Lipoyl) (peptide, UniProt Q9P219 2021-2028, looked up)
peptide: Lip-VWYEYGCV
notes: Daple, C-terminal eight residues; the last residue is printed as Val2028, so 2021 is worked out; printed residues: Trp2022, Glu2024, Tyr2025, Gly2026, Cys2027, Val2028; source: E. coli BL21-CodonPlus(DE3)-RIL, purified (Ni-NTA, SEC); not shown: Lipoyl (Lip), N-terminal, kept
Q: Does B1 bind [1]?
A: Result: binds

Q: And the Kd [2]?
A: Its Kd is 9.1 µM.
